Measured values published in PMC5675407, “Sugar analog synthesis by in vitro biocatalytic cascade: A comparison of alternative enzyme complements for dihydroxyacetone phosphate production as a precursor to rare chiral sugar synthesis” (PLoS ONE, 2017).

What was measured:
Assay in all cases: purified protein
purified protein [1] = substrate: Nc1ncnc2c1ncn2[C@@H]1O[C@H](COP(=O)(O)OP(=O)(O)OP(=O)(O)O)[C@@H](O)[C@H]1O; format: biochemical, Clostridium beijerinckii; conditions: glycerol in excess, 10 mM MgCl2, 50 mM NaHCO3 pH 9.2, room temperature
Source text: (§1) HPLC of ADP and ATP on GlpKCb

purified protein [2] = substrate: OCC(O)CO; format: biochemical, Clostridium beijerinckii; conditions: ATP in excess, 10 mM MgCl2, 50 mM NaHCO3 pH 9.2, room temperature
Source text: as §1

purified protein [3] = substrate: CC(=O)OP(=O)(O)O; format: biochemical, Mycolicibacterium smegmatis; conditions: ADP in excess, Mg2+, room temperature, buffer as for glycerol kinase (pH 9.2)
Source text: (§2) HPLC of ADP and ATP on AceKMs

purified protein [4] = substrate: Nc1ncnc2c1ncn2[C@@H]1O[C@H](COP(=O)(O)OP(=O)(O)O)[C@@H](O)[C@H]1O; format: biochemical, Mycolicibacterium smegmatis; conditions: acetyl phosphate in excess, Mg2+, room temperature, buffer as for glycerol kinase (pH 9.2)
Source text: as §2

B1: GlpKCb (Clostridium beijerinckii NCIMB 8052) (protein)
chain: MKKYILALDQGTTSSRAIIFDKEQNILGVSQKEFTQIYPNQGWVEHNPLEIWASQYGVLQEVIAKTNITQEEVAAIGITNQRETTIVWDKNTGEPVYNAIVWQCRRTAGIIEELKLDKEFSEYVKENTGLLLDAYFSATKIKWILDNVEGARERAEKGELLFGTVDTWLVWKLTNGKVHVTDYTNASRTMLYNIKELRWDERILEKLNIPKSMLPEVKNSSEVYGYTNLGGTGGVRVPIAGMAGDQQCALFGQTCFEEGSVKNTYGTGCFLLMNTGEKMIHSKNGLVSTIAVGIDGKVQYALEGSVFVGGAVIQWIRDELKLVTDAADTEYFAQKVEDNGGVYVVPAFTGLGAPYWDMYARGAIFGLTRGANRNHIIRAALESIAYQSKDLIDAMQEDAGCKLTRLKVDGGASRNNLLMQFQADITGAEVVRPIITETTALGAAYLAGLAVGFWKSKEEIAEKWAVSQSYSPNLAEEKKEKLYKGWKKAVKRAEGWEEE
notes: recombinant, His-tagged (pDEST17 or pETCC2), E. coli, Ni and size exclusion purified
Purified protein [1]
  Km: 135 ± 16 µM
  kcat: 93 s⁻¹
  kcat/Km: 690000 M⁻¹ s⁻¹
Purified protein [2]
  Km: 356 ± 27 µM
  kcat: 93 s⁻¹
  kcat/Km: 260000 M⁻¹ s⁻¹

B2: AceKMs (Mycolicibacterium smegmatis MC2 155) (protein)
chain: MTVLVVNSGSSSLKYAVVRPASGEFLADGIIEEIGSGAVPDHDAALRAAFDELAAAGLHLEDLDLKAVGHRMVHGGKTFYKPSVVDDELIAKARELSPLAPLHNPPAIKGIEVARKLLPDLPHIAVFDTAFFHDLPAPASTYAIDRELAETWHIKRYGFHGTSHEYVSQQAAIFLDRPLESLNQIVLHLGNGASASAVAGGKAVDTSMGLTPMEGLVMGTRSGDIDPGVIMYLWRTAGMSVDDIESMLNRRSGVLGLGGASDFRKLRELIESGDEHAKLAYDVYIHRLRKYIGAYMAVLGRTDVISFTAGVGENVPPVRRDALAGLGGLGIEIDDALNSAKSDEPRLISTPDSRVTVLVVPTNEELAIARACVGVV
notes: recombinant, His-tagged (pDEST17 or pETCC2), E. coli
Purified protein [3]
  Km: 390 ± 8 µM
  kcat: 1103 s⁻¹
  kcat/Km: 2.8e+06 M⁻¹ s⁻¹
Purified protein [4]
  Km: 113 ± 9 µM
  kcat: 1100 s⁻¹
  kcat/Km: 9.8e+06 M⁻¹ s⁻¹
